This series in a line: label from the status in PepcDB records.
Regarding “MSLSVMFDPQSYPYPSRRNVVYAKNGMVATSQPLAAQAGLDILKAGGNAIDAAIATATALTVLEPTSNGIGSDAFALVWTKGKLHGLNGSGRAPMSLTMEAVKAKGYEQELPPYGVIPVTVPGAPGAWAELAKMYGNLPLAASLAPAIRYAEEGYPVTPTLAKYWKAAYDRFKTEWTDDVYQPWFDTFAPKGRAPRVGEVWRSQGHADTLRSIAESNGESFYRGELADQIHAFFDKHGGYLTKEDLACYRPEWVEPISIDYRGYRVWEIPPNGQGLVALEALNIVKGFEFYHKDTVDTYHKQIEAMKLAFVDGMKYVTEPSDMSVSVEQLLSDEYATERRKEIGEQALTPEPGTPPRGGTVYLATADGDGNMVSFIQSNYMGFGSGVVVPGTGIAMQNRGHNFSLDPNHDNALKPGKRTYHTIIPGFLTKNDQPIGPFGVMGGFMQPQGHMQVMMNTIDFGLNPQAALDAPRWQWTNGKQVQVEPTFPVDIAQALVRRGHKIQVVLDEGAFGRGQIIWRDPTTGVLAGGTEPRTDGQVAAWEGHHHHHH”, the protein production entry is listed as “not failed”.

Regarding “MHVSSGRWVYGLFLALLTALLWGILPIKLKQVLQVMDPVTVTWFRLTVSGGCLLAYLAAVGRLPRWRVLGPKGIWLVPISVCGLVGNYVLYLMGLNLLSPGTAQLVVQMGPILLLIASLFVFKERFSLGQGLGLLVLLIGFGLFFNQRLSELLTSLSDYTAGVLTILAASAVWTFYALGQKQLLSVWNSLQVMMVIYLFCALLLTPWAHPLEALEVNPLQGWLLLGCCLNTLIAYGAFAEALAHWEASRVSATLAITPLVTFVAVAWAAWLWPEYVQAEQINGLGYGGALLVVLGSALTALGPSLMAGLRARRQRIAAG”, the protein production entry is listed as “failed”.

With “MTTPAPVPRITVLLPVYNGEQYLREALDSLLTQTYRNFSLLAVDDGSTDSSLEILRSIKDPRLSVKVNPRNRGLINTLNESLDLIQSEYVARMDADDIATPYRLEEQLAFMDAHPDVGLCGGYYERFTDTESIVVRPPTTHEDISYALIFDNVMAHNTVMFRRSVLERYRLRYDPAFAYAEDYELWVRFARYSRLANLPRVLVRYRFHPANTSSRFRHEQQIAAAKIRHIHRTNLGLEPRPGDAALHRQLFDMRFEGDLPELTAAGIWLSKLYRVGVRRCRQNPVSTFLEFNKLWYSACGRLADHGLKVFAQFLRQPFGFLGNPAYTLKLAYRCWRRIRIALEHHHHHH”, the protein production result was “failed”.

In the case of “MAPQKPVSAAQTAQHSAVWIDVRSEQEFSEGHLHNAVNIPVDQIVRRIYEAAPDKDTPVNLYCRSGRRAEAALQELKKAGYTNVANHGGYEDLLKKGLEHHHHHH”, the protein production entry is “not failed”.

Regarding “MNQRLDHYLKNTNQCETRSKAIDLIKRGRVFVNNFQVLKPSFLVKQTDSVEIKNDEMYFVSKGGYKLLKIIKEINLIIKNFVIADLGSSTGGFTDCCLQLGAKKIYAIDVGVDLLHPSLKKSYKIINYEKTNVKNLDKSYFLEDLDLIVGDLSFISLEQIFPIIKKISSPKTLLLLLIKPQFELGKDVASKYKGLIQNQKLQQLAINKIINLAKNYDFECKHLTPTDIFDEKKQNQEYMIFLQKHEK”, the protein production entry was “failed”.

On to “SFPNRRIVTTVFNDEGIQFLVTRYIKALNPPQQLLDIFLHNSNATFDLIARFVSLIPFVPNTPDENDGSDIWMTSEHCISLAIGNKEEHAILLCNFFLYFGKKALVLLGTSVLEGHVAYVVTQETNEYLLWNPSTGQCYKQFDPFCPLKSVDCLFDDRNVWFNIQQNNTPMAVFFDYSKESFWKQLLPKNVQGTKIQSIQVTGFPIQMPYIDVQSIIDAVYQTGIHSAEFPQTEFALAVYIHPYPNNILSVWVYLASLVQHQ”, for which the protein production result was “not failed”.

In the case of “MYDNENPNGFGSNPEENNDDNISGTENNNFEEVNSQQVSQDAVNSSEQNTEQTAEQESSVYRQSYVNDEHHNADDVSGNGTYYSQGSNNSSNDSTQNGSYYNNTQDGSYYNSNSNNSQNNGYYYSTNDSQTNNGYNYNSNNNNNGNGKKKKKKRTLIAVVAVCVVLLAGTIGISAAYFSKNKDSLTNVLEDGTLSNNNNNSNSNNDNSSDSGNYESIGSTNTQNDANSSSTSGVTVTDVSSVVSSAMPSVVAITSKTLVESRNDYSQDIWEYYFGGGNSGNNKSNSYEEDAAGSGIIVDQTSTELLIVTNNHVVEGADSLKIQFAGTESKDSVDGYIKGTDSTKDVAVVAVKLKDIPSDVLKNIKKATLGDSDKVNVGEGVIAIGNALGYGQSVTTGIISAKDRKVQLENQTMTLLQTDAAINGGNSGGALLNASGEVIGINVAKYSSSGSSSNASVEGMGFAIPISSVKDIISDLETKETRTKVSEDERGYLGISGFDVDEQTSQAYSIPQGIQVQSVVKGGPAENAGIAASDVITKFDGQDVSSMASLQSMLEYYKKGEQVKVTIEYRDGREYKTKDVTVTLGDKSVIETTQNAAN”, the protein production result is on record as “failed”.

Turning to “MTAAEPYTVELAADVHAYVQPDGGWCLNNAGFVSDGTTTLLVDTAATERRTRALSAAIAAAGVPAPRFVVNTHHHGDHTYGNSHFAPTATIVSHAECRRETLANGRQLHLLWPENDFGDIRIQAADLTYTGHTTVHVGAVDAEVIHPGVAHTVSDSVVWLPHRRVLFTGDLVFEGGTPFILMGSLSGSLRALDVLRQLGAETVVPGHGPVTDPSAFDRTERYLRFVADIAHKSHAAGRTPLEAARETDLGEFAALPESERFVANLHRAYAELDGAPEGAPLDVPAAVRDIAAMNGGRMVACHA”, the protein production result is recorded as “failed”.

Turning to “IKTRGRNLYSYEGKIGKAVDDIKSGQEGYVIVEGEYWRALALEDIKKNEDIVVVKREGMKLMVRKKVSDIETSRV”, the protein production entry is reported as “failed”.

“MGAGSQTTGAGQKKVQTITVGTGTQFPNICFIDEKGDLTGYDVELIKELDKRLPHYKFTFKTMEFSNLLVSLGQHKVDIVAHQMEKSKEREKKFLFNKVAYNHFPLKITVLQNNDTIRGIEDLKGKRVITSATSNGALVLKKWNEDNGRPFEIAYEGQGANETANQLKSGRADATISTPFAVDFQNKTSTIKEKTVGNVLSNAKVYFMFNKNEQTLSDDIDKALQEIIDDGTLKRLSLKWLGDDYSKEQYLEHHHHHH”: the protein production entry is “not failed”.

Regarding “PFGSTSGSLFGPSSFTAAPTGTTIKFNPPTGTDTMVKAGVSTNISTKHQCITAMKEYESKSLEELRLEDYQANRKGPQNQVGAGTTTGLFGSSPATSSATGLFSSSTTNSGFAYGQNK”, the protein production entry was “failed”.

Consider “MAERTLVKPCTSVPPTMVRVPNVTRADALAAARNPLALIAERWTPAPRTVRRAALAALVMAVVIVVTGGAVRLTGSGLGCPTWPKCTDDSLTTTSAMGFHGVIEFGNRMLTYVLCAAVGWAIIAARSQKPWRRSLTRLGWAQFWIVMSNAILGGIVVLVGLNPYTVAAHFLLSTALIAVATLMWQRACEGDGAPRPLVGKAVQQLVWFLVTASVLLIAVGTVVTGAGPHAGDSSDVERMPLDWETVSKLHAVLAWIVVTLTFALWFVLKAVDAPKGPLHRTRDLFLILLAQGVIGYVQYFTDLPEALVALHMLGSCLVWIGVLRVLLSLRERPEAVADLPGPSTESALTRA”, for which the protein production result is reported as “failed”.

For “MGNYKFRISEMLPNAWFHKLKDVTKHSKPKNKASSSSSNTCSKKKPSSDSLPQHSYFSNSLVANNPPHHNSPRNSLHTKKMSKRKTLYKPSLKPLTPPPLLVSASFNKSKINDQDSSYSLFPAIETSPESFVYSFYEEDDDDEFVEFSNFKINTKNKAFTKQKVKVIDSVEKACTASKPIKKPQKSHLSVKISRDEDDNEYKAEKKYQRQVSSGRKPSAGINLKRVNSPRIQLSGTRRSTSRRSESKQDVLESFAVMKRSVDPKKDFRESMIEMIEENNIRASKDLEDLLACYLTLNPKEYHDLIIHVFEQIWLQLTKTK”, the protein production result is “failed”.

As to “MQSSSSLAPVAPIIFLAIAIAAINWIDLARGKNRTSVAYPLSLLTTLVLTAWFGIDAAGGETHYAFANLVVIDPMANVLAAFCSLGMLLTLIYTRSYLAERDMFAGEFYMLALFTLGGQIVMITGNNFLTLYLGLELLSLSSYALVALRRDSRVTSESAIKYFVLGALASGFLLYGMSMMYGATGSLNLGEVFRVVESGRVNTTMLAFGVVFIVAGVAFKLGAAPFHMWIPDIYQGSPTAVTLLIAAGPKVAAFALIIRLLVEGLLPLATDWQVMLVILSIASLVIGNLTAIVQTNLKRMLAYSTISHMGFVLLGMLSGVVANKADGAVNAYSSSMFYSITYMLTTLGTFGLILVRTRKGFEAETLDDLKGMSRRHPWFAFLMLVMMFSMAGIPPTVGFYAKLSVLQAVVSAGMSWLAVLAVVFSLIGAFYYLRIVKLMYFDAPVGEEPLEASTGLRSVLSLNGLAVILLGLFPAGLMDLCFQAIRATLAS”, the protein production result is reported as “failed”.

Regarding “MNSEWIWRLRARLGYGVARQLLGWPWLVKQPRAWQWMQGQFSRMANLGHRDAQAFYGHLLLFRGQGFGAREEGLRLLRLAASAGDGKSAYQLGVQALKGDSRQAPDALAASRHWALAAEAGHPLAARKLAELYRDGGPGLAPDSERAEHYAQRASALGLLEHHHHHH”, the protein production entry was “failed”.

With “NGKIALEEHFATEETLMDSAGFVPDKDWPELRSRLLDIQDRRVRLMDEHGIETMILSLNAPAVQAIADSTRANETARRANDFLAEQVAKQPTRFRGFAALPMQDPELAARELERCVKELGFVGALVNGFSQDNRSAVPLYYDMAQYWPFWETVQALDVPFYLHPRNPLPSDARIYDGHAWLLGPTWAFGQETAVHALRLMGSGLFDKYPALKIILGHMGEGLPYSMWRIDHRNAWIKTTPKYPAKRKIVDYFNENFYLTTSGNFRTQTLIDAILEIGADRILFSTDWPFENIDHAADWFENTSISEADRKKIGWGNAQNLFKLNR”, the protein production entry is “not failed”.

As to “MIDTLKNIKVKDVMTKNVITAKRHEGVVEAFEKMLKYKISSLPVIDDENKVIGIVTTTDIGYNLIRDKYTLETTIGDVMTKDVITIHEDASILEAIKKMDISGKKEEIINQLPVVDKNNKLVGIISDGDIIRTISKII”, the protein production result is “not failed”.

On to “MRFGSRIEDGTGAPGAGRLARFAAVGGSGVVVNLAVLHVLAQGLGVPEVAASAVAIEASVLSNFLLHDAITFRDRRGGRGRLARLGRYHAVSLVGVAIQLATFAALALLARHALGRPSLGPLRLPAQAAGIALAFAWSWAGSARWAWAGAGAAVRGPEAGARGRALLPAVLFGALVALHVLPIWLVRYFPTQDGPLHVENVLALLHHGASPLLRGYYEANWGAQPNWLTQALLAPLLSIVSPLTAEKLVLSGYTVLLPISFRAVLPRGARGWWAALAVFPFVHAYPFHMGFWNFCYGVALAFLAAGFWLRTRGRLGPGRFAALAVLSLLLYLAHSVAFAGALLFAGAVLGLRAARSLARARRHPARRRRVAAAYARRAAAGLAAAAPGLLLLGAWLLAHRDRVAARIPLPELAAKLAAGYSLVSIDRRELPLAMAVMLVLAVAVVHAALVRAGRGVRLLAHDGWLVAAAAFVLLYFAVPDVVAAGAHVSDRMALLALLCVAAWLGAASAGPGAPARRAAVALAAIAVVALGVRLDKQRQLSAYLEEYASASAAVEEGRVMLPLALSPYGPQDAHGRRMGYRIKPFLHATGWIVAARGGVDLKNSQANTDHCPVRFPAGRNPFHVIAGSLGRMEGVPPCVDLRGARRLGRLDYVLVWGATRELLETPCGAALAADLAARYEPVWLSAPRGMLEIWRPRAAVAVAR”, for which the protein production entry is on record as “failed”.

Source of the values: a protein production outcome set (Wang et al. 2014).
